T1: RecU D88N D88N (Bacillus subtilis) (UniProt P39792)
T1 sequence: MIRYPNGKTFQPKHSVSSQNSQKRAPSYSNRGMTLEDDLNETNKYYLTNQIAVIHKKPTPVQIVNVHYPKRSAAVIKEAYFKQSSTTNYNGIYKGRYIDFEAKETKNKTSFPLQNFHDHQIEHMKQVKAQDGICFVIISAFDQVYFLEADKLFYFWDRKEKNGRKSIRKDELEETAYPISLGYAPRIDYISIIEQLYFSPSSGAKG

T2: RecU D88N (Bacillus subtilis, UniProt P39792 1-206, D88N)
T2 sequence: T1 sequence

B1: RecU D88N, catalytically inactive mutant of the Holliday junction resolving enzyme RecU from Bacillus subtilis (enzyme, UniProt P39792 1-206, looked up)
chain: T1 sequence
notes: the N-terminal region (residues 1-33), the stalk (56-89) and the cap (34-55 and 90-199) are seen in the structure
B2: 12 bp palindromic duplex (dsDNA)
DNA 1: ACGCAATTGCGT
DNA 2: ACGCAATTGCGT

Tests used:
[1] = biological target: T1, RecU D88N D88N (Bacillus subtilis); test: thermofluor; settings: 1:1 molar ratio; Thermofluor: 100 mM MES pH 6.5, 5 ug RecU D88N per well, DNA 1:1 molar, Sypro orange, 25-100 C in 1 C steps; crystals: 0.1 M BICINE pH 9, 10% PEG 6000, 17 C …
[2] = biological target: the molecule itself; test: crystal structure; RecU D88N mixed with 12 bp palindromic DNA at 1:1.25 molar ratio; crystals in 0.1 M BICINE pH 9, 10% PEG 6000, 17°C; 3.2 Å, space group R32, four RecU chains in the asymmetric unit
[3] = biological target: T2, RecU D88N; test: X-ray crystallography (3.2 A); 0.1 M BICINE pH 9, 10% PEG 6000; Thermofluor: 100 mM MES pH 6.5, 5 ug RecU D88N per well, DNA 1:1 molar, Sypro orange, 25-100 C in 1 C steps; crystals: 0.1 M BICINE pH 9, 10% PEG 6000, 17 C, protein:DNA 1:1.25; settings: protein: recombinant; chain copies: 2; blunt; self-complementary, 2 strand copies

| Molecule | binding signal [1] | also measured |
| --- | --- | --- |
| HJ 11 bp | 8.2 delta Tm, C | – |
| HJ 12 bp (HJ24?) | 10.1 delta Tm, C | – |
| HJ 10 bp | 6.7 delta Tm, C | – |
| B1 | – | binding result [2]: binds |
| B2 | – | binding result [3]: binds |

Reference: article PMC5314769, “Structural insights into dynamics of RecU–HJ complex formation elucidates key role of NTR and stalk region toward formation of reactive state” (Nucleic Acids Research, 2016)
